From the supplement of paper PMC9112550, “Optimization of the antimicrobial peptide Bac7 by deep mutational scanning” (BMC Biology, 2022) come the findings set out here.

In the data set the test system is Escherichia coli TOP10. Briefly: shrunken log2 fold change of peptide-encoding DNA abundance (4.5 h post-induction vs induction); higher = less antimicrobial activity (less host growth inhibition). Conditions: time post-induction: 4.5 h; library: site-saturation at positions 5, 18, 19, 20.
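Further: peptides expressed intracellularly from a pBAD plasmid library in pooled LB shake-flask culture, induced with 0.3% L-arabinose, DNA abundance read by NGS, three biological replicates, DESeq2 with apeglm shrinkage.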

With RRIRERPPRLPRPRPRPQWLPRP, the “shrunken log2 fold change” value was -0.168.

For RRIRIRPPRLPRPRPRPILHPRP, the “shrunken log2 fold change” value is -0.469.

Regarding RRIRVRPPRLPRPRPRPPKRPRP, the “shrunken log2 fold change” value was -0.193.

For the sequence RRIRSRPPRLPRPRPRPMCWPRP, the “shrunken log2 fold change” value was 0.318.

RRIRTRPPRLPRPRPRPKWNPRP: the “shrunken log2 fold change” value came to 0.0454.

In the case of RRIRIRPPRLPRPRPRPPRKPRP, the “shrunken log2 fold change” value is 0.0691.

For the sequence RRIRSRPPRLPRPRPRPSPKPRP, the “shrunken log2 fold change” value turned out to be 0.0583.

Regarding RRIRFRPPRLPRPRPRPIDFPRP, the “shrunken log2 fold change” value is -0.0919.

Take RRIRPRPPRLPRPRPRPLEMPRP: the “shrunken log2 fold change” value worked out at 0.0597.

As to RRIRKRPPRLPRPRPRPQQEPRP, the “shrunken log2 fold change” value worked out at 0.0644.

On to RRIRDRPPRLPRPRPRPCSVPRP, for which the “shrunken log2 fold change” value is -0.0368.

In the case of RRIRNRPPRLPRPRPRPDINPRP, the “shrunken log2 fold change” value is -0.482.

In the case of RRIRNRPPRLPRPRPRPWNNPRP, the “shrunken log2 fold change” value is -0.15.

As to RRIRSRPPRLPRPRPRPIFRPRP, the “shrunken log2 fold change” value was determined as 0.0112.

RRIRPRPPRLPRPRPRPGYMPRP: the “shrunken log2 fold change” value is -0.126.

Consider RRIRVRPPRLPRPRPRPNVNPRP, for which the “shrunken log2 fold change” value was -0.494.

Consider RRIRERPPRLPRPRPRPYHHPRP, for which the “shrunken log2 fold change” value was -1.56.

For RRIRFRPPRLPRPRPRPSNSPRP, the “shrunken log2 fold change” value is -0.723.

Regarding RRIRQRPPRLPRPRPRPGGAPRP, the “shrunken log2 fold change” value turned out to be 0.485.

Consider RRIRDRPPRLPRPRPRPMLVPRP, for which the “shrunken log2 fold change” value is 0.116.

Consider RRIRMRPPRLPRPRPRPATHPRP, for which the “shrunken log2 fold change” value was -0.0207.

RRIRTRPPRLPRPRPRPFMRPRP: the “shrunken log2 fold change” value is -0.0135.

For RRIRVRPPRLPRPRPRPCDPPRP, the “shrunken log2 fold change” value is -0.107.

On to RRIRYRPPRLPRPRPRPDTQPRP, for which the “shrunken log2 fold change” value was -0.00672.

With RRIRCRPPRLPRPRPRPHKDPRP, the “shrunken log2 fold change” value was -0.636.

For RRIRGRPPRLPRPRPRPVHCPRP, the “shrunken log2 fold change” value stood at 0.0385.

For the sequence RRIRPRPPRLPRPRPRPTDRPRP, the “shrunken log2 fold change” value was 0.121.

Take RRIRHRPPRLPRPRPRPYMTPRP: the “shrunken log2 fold change” value was -0.313.

Take RRIRNRPPRLPRPRPRPMCAPRP: the “shrunken log2 fold change” value is -0.253.

Turning to RRIRLRPPRLPRPRPRPYVHPRP, the “shrunken log2 fold change” value was -0.783.

Turning to RRIRCRPPRLPRPRPRPYLWPRP, the “shrunken log2 fold change” value is -0.726.

With RRIRHRPPRLPRPRPRPMHFPRP, the “shrunken log2 fold change” value is -0.0161.

Take RRIRIRPPRLPRPRPRPAEAPRP: the “shrunken log2 fold change” value stood at 0.0803.

RRIRCRPPRLPRPRPRPHITPRP: the “shrunken log2 fold change” value is -0.704.

For RRIRPRPPRLPRPRPRPQEQPRP, the “shrunken log2 fold change” value is -0.0215.

Regarding RRIRERPPRLPRPRPRPMTCPRP, the “shrunken log2 fold change” value was -0.00926.

Take RRIRDRPPRLPRPRPRPQVVPRP: the “shrunken log2 fold change” value came to 0.0572.

Regarding RRIRERPPRLPRPRPRPVFCPRP, the “shrunken log2 fold change” value is -0.0447.

Turning to RRIRCRPPRLPRPRPRPRTGPRP, the “shrunken log2 fold change” value is 0.148.

Take RRIRGRPPRLPRPRPRPHYFPRP: the “shrunken log2 fold change” value worked out at 0.313.

On to RRIRSRPPRLPRPRPRPDKQPRP, for which the “shrunken log2 fold change” value was -0.0566.

In the case of RRIRPRPPRLPRPRPRPLHYPRP, the “shrunken log2 fold change” value is -0.11.

With RRIRQRPPRLPRPRPRPLINPRP, the “shrunken log2 fold change” value is -0.305.

On to RRIRMRPPRLPRPRPRPARYPRP, for which the “shrunken log2 fold change” value was found to be 0.581.

Turning to RRIRGRPPRLPRPRPRPNDTPRP, the “shrunken log2 fold change” value worked out at 0.188.

Turning to RRIRHRPPRLPRPRPRPIMPPRP, the “shrunken log2 fold change” value was -0.74.

Turning to RRIRHRPPRLPRPRPRPVCWPRP, the “shrunken log2 fold change” value turned out to be 0.268.

Regarding RRIRQRPPRLPRPRPRPMLAPRP, the “shrunken log2 fold change” value was 0.0967.

In the case of RRIRGRPPRLPRPRPRPHQDPRP, the “shrunken log2 fold change” value was determined as 0.165.

Take RRIRNRPPRLPRPRPRPYLSPRP: the “shrunken log2 fold change” value is -0.169.

RRIRHRPPRLPRPRPRPAFAPRP: the “shrunken log2 fold change” value was determined as 0.278.

RRIRCRPPRLPRPRPRPVYYPRP: the “shrunken log2 fold change” value is -0.363.

As for RRIRCRPPRLPRPRPRPTAEPRP, the “shrunken log2 fold change” value came out at 0.363.

Consider RRIRLRPPRLPRPRPRPLTHPRP, for which the “shrunken log2 fold change” value is -0.0644.

As to RRIRERPPRLPRPRPRPKGQPRP, the “shrunken log2 fold change” value was 0.132.

As to RRIRHRPPRLPRPRPRPARLPRP, the “shrunken log2 fold change” value came to 0.568.

For RRIRGRPPRLPRPRPRPHHEPRP, the “shrunken log2 fold change” value worked out at 0.325.

Consider RRIRRRPPRLPRPRPRPFGGPRP, for which the “shrunken log2 fold change” value was found to be 0.0433.

Consider RRIRGRPPRLPRPRPRPETVPRP, for which the “shrunken log2 fold change” value came to 0.431.

Turning to RRIRPRPPRLPRPRPRPWNSPRP, the “shrunken log2 fold change” value is -0.163.

Take RRIRDRPPRLPRPRPRPTVYPRP: the “shrunken log2 fold change” value stood at 0.12.

Take RRIRGRPPRLPRPRPRPCQIPRP: the “shrunken log2 fold change” value is -0.0259.

In the case of RRIRPRPPRLPRPRPRPCDRPRP, the “shrunken log2 fold change” value was 0.0787.

Consider RRIRSRPPRLPRPRPRPITHPRP, for which the “shrunken log2 fold change” value is -0.419.

Regarding RRIRHRPPRLPRPRPRPESNPRP, the “shrunken log2 fold change” value is -0.131.

As to RRIRPRPPRLPRPRPRPAGDPRP, the “shrunken log2 fold change” value was 0.387.

In the case of RRIRRRPPRLPRPRPRPAQGPRP, the “shrunken log2 fold change” value is -0.179.

As for RRIRMRPPRLPRPRPRPTYFPRP, the “shrunken log2 fold change” value is -0.0299.

Turning to RRIRVRPPRLPRPRPRPKQFPRP, the “shrunken log2 fold change” value came to 0.109.

Take RRIRHRPPRLPRPRPRPGVGPRP: the “shrunken log2 fold change” value turned out to be 0.146.

Turning to RRIRMRPPRLPRPRPRPEFLPRP, the “shrunken log2 fold change” value is 0.113.

With RRIRTRPPRLPRPRPRPEGRPRP, the “shrunken log2 fold change” value was determined as 0.1.

On to RRIRQRPPRLPRPRPRPDRRPRP, for which the “shrunken log2 fold change” value stood at 0.00167.

RRIRWRPPRLPRPRPRPCFSPRP: the “shrunken log2 fold change” value was -0.176.

With RRIRDRPPRLPRPRPRPLCGPRP, the “shrunken log2 fold change” value is 0.32.

For the sequence RRIRCRPPRLPRPRPRPVLKPRP, the “shrunken log2 fold change” value was found to be 0.181.

In the case of RRIRGRPPRLPRPRPRPRPFPRP, the “shrunken log2 fold change” value came out at 0.889.

Take RRIRNRPPRLPRPRPRPAPKPRP: the “shrunken log2 fold change” value is 0.377.

Regarding RRIRTRPPRLPRPRPRPWGVPRP, the “shrunken log2 fold change” value is -0.0284.

On to RRIRIRPPRLPRPRPRPKDDPRP, for which the “shrunken log2 fold change” value was -0.254.

With RRIRDRPPRLPRPRPRPPFTPRP, the “shrunken log2 fold change” value worked out at 1.76.

For the sequence RRIRMRPPRLPRPRPRPWIWPRP, the “shrunken log2 fold change” value came to 0.106.

Turning to RRIRERPPRLPRPRPRPSLWPRP, the “shrunken log2 fold change” value was -0.151.

As for RRIRGRPPRLPRPRPRPEHTPRP, the “shrunken log2 fold change” value amounted to 0.0464.

With RRIRARPPRLPRPRPRPLERPRP, the “shrunken log2 fold change” value is -0.0328.

On to RRIRYRPPRLPRPRPRPLQRPRP, for which the “shrunken log2 fold change” value is -0.208.

For RRIRPRPPRLPRPRPRPENWPRP, the “shrunken log2 fold change” value amounted to 0.264.

On to RRIRHRPPRLPRPRPRPSLEPRP, for which the “shrunken log2 fold change” value stood at 0.0392.

With RRIRMRPPRLPRPRPRPLGIPRP, the “shrunken log2 fold change” value was 0.0188.

For the sequence RRIRVRPPRLPRPRPRPNEFPRP, the “shrunken log2 fold change” value is -0.00739.

For the sequence RRIRRRPPRLPRPRPRPTQGPRP, the “shrunken log2 fold change” value was 0.935.

Turning to RRIRGRPPRLPRPRPRPFVFPRP, the “shrunken log2 fold change” value was determined as 0.608.

For the sequence RRIRTRPPRLPRPRPRPPMLPRP, the “shrunken log2 fold change” value amounted to 0.0279.

Turning to RRIRVRPPRLPRPRPRPRWWPRP, the “shrunken log2 fold change” value is 0.0125.

Consider RRIRVRPPRLPRPRPRPKPQPRP, for which the “shrunken log2 fold change” value amounted to 0.719.

In the case of RRIRERPPRLPRPRPRPNKYPRP, the “shrunken log2 fold change” value worked out at 0.202.

RRIRLRPPRLPRPRPRPLGEPRP: the “shrunken log2 fold change” value was determined as 0.013.

For RRIRNRPPRLPRPRPRPRHWPRP, the “shrunken log2 fold change” value stood at 0.133.

As for RRIRERPPRLPRPRPRPRTYPRP, the “shrunken log2 fold change” value was -0.517.

In the case of RRIRPRPPRLPRPRPRPQWVPRP, the “shrunken log2 fold change” value came out at 0.0693.

Turning to RRIRERPPRLPRPRPRPMMKPRP, the “shrunken log2 fold change” value was -0.282.

As to RRIRNRPPRLPRPRPRPAHYPRP, the “shrunken log2 fold change” value was -0.299.

On to RRIRFRPPRLPRPRPRPAKLPRP, for which the “shrunken log2 fold change” value is -0.263.

Take RRIRQRPPRLPRPRPRPNELPRP: the “shrunken log2 fold change” value is -0.24.

Regarding RRIRRRPPRLPRPRPRPRWPPRP, the “shrunken log2 fold change” value worked out at 0.598.

Turning to RRIRVRPPRLPRPRPRPSAWPRP, the “shrunken log2 fold change” value amounted to 0.804.

For the sequence RRIRPRPPRLPRPRPRPLSWPRP, the “shrunken log2 fold change” value is 0.238.

Consider RRIRTRPPRLPRPRPRPIPKPRP, for which the “shrunken log2 fold change” value worked out at 0.103.

For RRIRMRPPRLPRPRPRPRHPPRP, the “shrunken log2 fold change” value was 0.617.

As to RRIRGRPPRLPRPRPRPQQQPRP, the “shrunken log2 fold change” value is 0.843.

For the sequence RRIRPRPPRLPRPRPRPRCFPRP, the “shrunken log2 fold change” value was found to be 0.155.

As for RRIRIRPPRLPRPRPRPCRIPRP, the “shrunken log2 fold change” value was -0.0204.

Take RRIRARPPRLPRPRPRPRHSPRP: the “shrunken log2 fold change” value is -0.00589.

In the case of RRIRNRPPRLPRPRPRPNSKPRP, the “shrunken log2 fold change” value was -0.331.

As for RRIRYRPPRLPRPRPRPNGWPRP, the “shrunken log2 fold change” value is -0.0316.

Consider RRIRWRPPRLPRPRPRPINTPRP, for which the “shrunken log2 fold change” value is -0.494.

For the sequence RRIRFRPPRLPRPRPRPPQAPRP, the “shrunken log2 fold change” value worked out at 0.558.

For RRIRIRPPRLPRPRPRPAPMPRP, the “shrunken log2 fold change” value was found to be 0.0013.

As for RRIRSRPPRLPRPRPRPGCDPRP, the “shrunken log2 fold change” value came to 0.332.

In the case of RRIRARPPRLPRPRPRPCLEPRP, the “shrunken log2 fold change” value came out at 0.19.

Consider RRIRQRPPRLPRPRPRPMMGPRP, for which the “shrunken log2 fold change” value is -0.107.

As to RRIRSRPPRLPRPRPRPGFNPRP, the “shrunken log2 fold change” value is -0.038.

For the sequence RRIRIRPPRLPRPRPRPFYTPRP, the “shrunken log2 fold change” value is -0.324.

As to RRIRTRPPRLPRPRPRPNPRPRP, the “shrunken log2 fold change” value came to 0.23.

Regarding RRIRLRPPRLPRPRPRPTHMPRP, the “shrunken log2 fold change” value was 0.0883.
